Patent publication US20240239894A1, “THERAPEUTIC BINDING MOLECULES” (MedImmune Limited, priority 2020, published 2024)

Key:
[1] = target: human B7-H4 on cells (human) (UniProt Q7Z7D3); assay: flow cytometry, AF647-labelled antibody at 78 ng/ml, SKBR-3 cells
[2] = target: human B7-H4 on cells (human) (UniProt Q7Z7D3); assay: flow cytometry, AF647-labelled antibody at 312 ng/ml, SKBR-3 cells

Sequence of human B7-H4 on cells (human) (Q7Z7D3 25-282 limits assumed): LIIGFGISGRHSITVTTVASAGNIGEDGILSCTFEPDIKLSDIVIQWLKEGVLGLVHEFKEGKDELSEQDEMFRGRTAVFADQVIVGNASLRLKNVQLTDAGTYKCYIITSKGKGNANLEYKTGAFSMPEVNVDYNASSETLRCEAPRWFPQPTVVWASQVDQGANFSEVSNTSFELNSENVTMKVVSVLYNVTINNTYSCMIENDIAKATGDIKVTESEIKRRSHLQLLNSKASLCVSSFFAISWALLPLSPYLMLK

- Geometric Mean : Comp-APC-A [1]: 101
- Geometric Mean : Comp-APC-A [2]: 121
Substance: R347-maia human IgG1 (isotype control) (antibody)
